We go through ten molecules from PMC3307390 (Journal of Immunology (Baltimore, Md. : 1950), 2010).

One assay has as its target DQA1*0101/DQB1*0501 (Homo sapiens, UniProt P01909+P01920, A157S/A45G/A70V/C70R/D89V/E106S/E118A/E183D/E77G/F83G/G63E/H151Q/H199R/H252R/H253Q/I129T/I235V/I88M/INS77G/K197Q/L107V/L117V/L119Y/L178F/L71W/L74F/L85Q/L91A/L98M/M46L/N214S/P87R/Q116E/Q256R/Q57E/Q76K/R102G/R240Q/R75S/R78G/S102Y/S185I/S41F/S97I/T103A/T109R/T121G/T122I/T172A/T86R/V148I/V68A/V73E/Y34C/Y58G/Y62H). The assay is described as follows: biochemical. Type of assay: binding.

Another assay addresses DQA1*0102/DQB1*0602 (Homo sapiens, UniProt P01909+P01920, A157G/A45G/C70R/E118A/E183D/E77G/F83G/G63E/H151Q/H199R/H252R/H253Q/I129T/I235V/I88M/INS77G/K197Q/L117V/L119F/L178F/L71W/L74F/L85Q/L91A/L98M/N214S/P87R/Q116E/Q76K/R102G/R240Q/R75S/R78G/S102Y/S185I/S41F/S97I/T121G/T122I/T172A/T86R/V229M/V68A/V73E/Y34C/Y41F/Y58L). Kind of assay: biochemical. Type of assay: binding.
The target of a further assay is DQA1*0501/DQB1*0201 (Homo sapiens, UniProt P01909+P01920, A45G/A70V/D89A/E106A/E77G/E98D/H199R/L107V/N214S/P84L/P87L/T103K/T109R/T172A/T60S/V78E/V99I/Y58L/Y62S/Y69I/Y79F). Kind of assay: biochemical.
For assay [1], the target named is HLA-DQ DQA1*0301/DQB1*0302 (human (endogenous in EBV-transformed cell line Preiss)). Kind of assay: radioligand binding.
The target in assay [2] is HLA-DQ DQA1*0501/DQB1*0201 (human (endogenous in EBV-transformed cell line VAVY)). The assay is described as follows: radioligand binding.
For assay [3], the target named is HLA-DQ DQA1*0101/DQB1*0501 (human (endogenous in EBV-transformed cell line LG2)). The assay is described as follows: radioligand binding.

Peptide text beside a SMILES is read from it.

In general, IC50 refers to the point on the concentration scale where inhibition reaches its midpoint. For the molecule `CC(C)C[C@H](NC(=O)[C@@H](NC(=O)[C@H](Cc1c[nH]cn1)NC(=O)[C@H](CO)NC(=O)[C@H](Cc1ccccc1)NC(=O)[C@H](CO)NC(=O)CNC(=O)CNC(=O)[C@H](CC(C)C)NC(=O)[C@H](Cc1ccc(O)cc1)NC(=O)[C@H](CCCNC(=N)N)NC(=O)[C@H](Cc1ccc(O)cc1)NC(=O)[C@H](CC(C)C)NC(=O)[C@@H]1CCCN1)C(C)C)C(=O)O`, the IC50 against DQA1*0101/DQB1*0501 worked out at 2460 nM.
The molecule `CC[C@H](C)[C@H](N)C(=O)N[C@@H](CC(N)=O)C(=O)N[C@@H](CCC(=O)O)C(=O)N1CCC[C@H]1C(=O)N[C@H](C(=O)N[C@@H](C)C(=O)N[C@@H](C)C(=O)N[C@@H](C)C(=O)N[C@H](C(=O)N[C@@H](C)C(=O)N[C@@H](Cc1ccc(O)cc1)C(=O)NCC(=O)N[C@@H](CC(C)C)C(=O)N[C@@H](CC(=O)O)C(=O)N[C@@H](CCCNC(=N)N)C(=O)O)[C@@H](C)CC)[C@@H](C)O` (H-INEPTAAAIAYGLDR-OH) gave an IC50 against DQA1*0102/DQB1*0602 of 6.3 nM.
On DQA1*0501/DQB1*0201, `CC[C@H](C)[C@H](NC(=O)[C@H](CO)NC(=O)[C@H](CCC(=O)O)NC(=O)[C@H](C)NC(=O)[C@H](CCC(=O)O)NC(=O)[C@H](CCSC)NC(=O)[C@H](CCC(N)=O)NC(=O)[C@H](CCCCN)NC(=O)[C@@H](NC(=O)[C@H](CC(=O)O)NC(=O)[C@H](CCC(=O)O)NC(=O)[C@H](CCSC)NC(=O)[C@H](C)NC(=O)[C@H](CCC(N)=O)NC(=O)[C@H](CC(=O)O)NC(=O)[C@H](CCC(=O)O)NC(=O)[C@@H](N)[C@@H](C)O)[C@@H](C)CC)C(=O)N[C@@H](CO)C(=O)O` yielded an IC50 of 439 nM.
As for RMMEYGTTMVSYQPL, the IC50 in assay [1] stood at 185 nM.
Take FDRSTKVIDFHYPNE: the IC50 in assay [1] is 3960 nM.
In turn, KPVSKMRMATPLLMQALP [Homo sapiens Ii chain peptide …] came in with an IC50 in assay [2] of 30 nM.
In assay [2], TEDQAMEDIKQMEAESIS [Bos taurus a-S1 casein peptide …] displayed an IC50 of 439 nM.
In assay [1], DCLLCAYSIEFGTNISKEHD [Gallus gallus ovomucoid peptide …] showed an IC50 of 146 nM.
PLYRYLGGSFSHVL [C. trachomatis enolase peptide …] returned an IC50 in assay [3] of 2460 nM.
Regarding TPTEKDEYCARVNH [H. sapiens B2-m peptide …], the IC50 in assay [1] came to 29500 nM.
